Source: US20200129630A1, “METHODS FOR TREATING CANCER” (BicycleRD Limited, priority 2018, published 2020)
Numbered stars: 1 amine (or outer) side, 2 acyl side, 3 side chain; on linkers, the order of the positions; unused ones are H or OH. Bridge positions count the residues as written; N and C are the ends. Square brackets hold non-standard residues; d marks the D form. Peptide text beside a SMILES is read from it. * marks the point of attachment. X1 = COc1cc2cc(c1Cl)N(C)C(=O)C[C@H](OC(=O)[C@H](C)N(C)C(=O)CCSSC(C)CCC(=O)*)[C@]1(C)O[C@H]1[C@H](C)[C@@H]1C[C@@](O)(NC(=O)O1)[C@H](OC)/C=C/C=C(\C)C2; 1Nal = N[C@@H](Cc1cccc2ccccc12)C(=O)O; TBMB = c1c(C[*:1])cc(C[*:3])cc1C[*:2]; Tle = CC(C)(C)[C@H](N)C(=O)O; βAla = NCCC(=O)O; Sar = CNCC(=O)O

Experiments:
[1] = nu/nu BALB/c mouse PK study; format: in vivo; conditions: plasma, 15 mg/m2, 15 mg/m^2 IV
[2] = test system: NCI-H1975; experiment: In vitro cytotoxicity (CellTiter-Glo) NCI-H1975; format: cell-based; conditions: NCI-H1975, NSCLC
Text: (§1) Table 1 and Table 2 Notes: in general regression and stable disease correlated with the in vitro cytotoxicity and MT1-MMP expression. Female BALB/c mice n=3/group animals dosed twice per week except EBC-1 three per week. Tumor growth inhibition (TGI) (%)=[1−(Ti−T0)/(Vi−V0)]×100; Ti is the average tumor volume of a treatment group on a given day, TO is the average tumor volume of the treatment group on the day of treatment start, Vi is the average tumor volume of vehicle control group on the same day with Ti, and V0 is the average tumor volume of vehicle group on the day of treatment start. A one-way ANOVA was performed to compare tumor volume among groups, and when a significant F-statistics (a ratio of treatment variance to the error variance) was obtained, comparisons between groups were carried out with Games-Howell test. All data were analyzed using GraphPad Prism.* p<0.05, ** p<0.01, *** p<0.001. In vitro cytotoxicity was measured by CellTiter-Glo®, MT1-MMP membrane H score from immunohistochemistry staining, NM not measured. Tumor size on Day 1 of dosing.

[3] = GLP-compliant 28-day repeat dose toxicity study, rat; format: in vivo
Protocol: In a GLP-compliant study in Cynomolgus monkeys, the highest non-severely toxic dose (HNSTD) of BT1718 was established to be 18 mg/m^2 administered twice weekly, equivalent to a human dose of 0.48 mg/kg. In a GLP-compliant study in the rat, the MTD was not reached with the highest administered dose 6 mg/m^2 twice weekly. At this dose level, there was kidney toxicity (with no effect on clinical condition) and also testicular toxicity. After 28 days off-dose, there was evidence of partial recovery of kidney-related findings, but no recovery of testicular effects at this dose level. […] Therefore, the MTD for rat for twice weekly dosing was considered to be between 1 and 1.5 mg/kg.

[4] = Plasma protein binding, mouse; format: in vitro ADME, mice; conditions: read-out: free fraction
Protocol: (§2) Plasma protein binding of BT1718 was also assessed. The mean plasma protein binding of the BT1718 peptide ranged from 87% to 98%, with the free fraction of BT1718 being 13% in human, 2.6% in rats, 7.5% in mice, 3.8% in monkey and 1.5% in dog plasma, the results had no correlation to the plasma and whole blood stability data. […] Plasma protein binding of unconjugated DM1, has previously been reported, with the unbound fraction being 7% in human and monkey and 3% in rat.

[5] = test system: MOLP-8; experiment: In vitro cytotoxicity (CellTiter-Glo) MOLP-8; format: cell-based; conditions: MOLP-8, Myeloma
Text: as §1

[6] = CD1 mouse dose response PK study
[7] = CNS behavioral model (Irwin study); format: in vivo; conditions: single dose 0.2, 0.5 or 1 mg/kg, rats
Protocol: As part of the Good Laboratory Practice (GLP)-compliant toxicity studies, a core battery of safety pharmacology tests were performed. […] Electrocardiogram (ECG) and respiratory plethysmography measurements were taken in monkeys dosed at 0.2, 0.5, 1 and 1.5 mg/kg (2.4, 6, 12 and 18 mg/m^2 respectively) twice weekly on Day 4, Day 22 (following 2nd and 7th dose) and in the recovery period (for animals dosed with 0, 6 and 12 mg/m^2 twice weekly). Blood pressure (BP) measurements were also evaluated in the same monkeys on Day 1 and Day 25 and in the recovery period. […] It is therefore concluded that BT1718 has no cardiac, respiratory or behavioral liability at the doses and schedule tested in the GLP toxicity studies.

[8] = Preclinical PK and toxicokinetics, summary across studies; design: species or system mice and rats; conditions: mouse and rat, in vivo, intravenous, read-out: half-life estimate
Text: BT1718 has low molecular weight (3.5 kDA) in comparison to other conjugated toxin approaches, which enables rapid penetration of tumor tissue. […] Hypothesized advantages over ADCs therefore include reduced systemic exposure of normal tissues to circulating BT1718, the ability to manage toxicity during recovery periods, as well as the improved tumor penetrance. Other potential advantages include a fixed peptide:conjugate ratio of 1:1 (c.f. ADCs where variable conjugation results in mixed populations) and with more scalable manufacturing as a small molecule (c.f. biologics such as ADCs).

[9] = Intrinsic clearance in cryopreserved hepatocytes; format: in vitro ADME
Protocol: Accumulation of the majority of the radioactivity was found in the kidney and bladder irrespective of the labelled peptide dose; this is indicative of either non-saturable excretion or proteolysis followed by excretion through the kidneys. Furthermore, the intrinsic clearance of BT1718 and its Bicycle component, N241 was low when measured in cryopreserved hepatocytes. […] Unconjugated DM1, when radiolabelled, (as [[^3H]-DM1 (91 μCi/kg, 200 μg/kg, IV), was reported to distribute rapidly and extensively to the lungs, liver, kidney, spleen, heart, gastrointestinal tract, and adrenal glands in the rat. The major route of excretion of DM1 was through the bile/faeces, with a minimal amount excreted in the urine, a completely different distribution to BT1718 and its metabolites with little and short lived accumulation seen in other organs such as heart, liver, GI and lungs which would imply that these organs maybe spared systemic toxicity.

[10] = Plasma protein binding, monkey; format: in vitro ADME; conditions: read-out: free fraction
Protocol: as §2

[11] = rat GLP, 1 mg/kg (6 mg/m^2) twice weekly
[12] = rat GLP, males 1 mg/kg (6 mg/m^2) twice weekly
[13] = male, CD1, mouse, plasma, iv, 15 mg/m2
[14] = male, CD1, mouse, plasma, iv, 30 mg/m2
[15] = male, CD1, mouse, plasma, iv, 60 mg/m2

COc1cc2cc(c1Cl)N(C)C(=O)C[C@H](OC(=O)[C@H](C)N(C)C(=O)CCSSC(C)CCC(=O)NCCC(=O)N(C)CC(=O)N(C)CC(=O)N(C)CC(=O)N(C)CC(=O)N(C)CC(=O)N(C)CC(=O)N(C)CC(=O)N(C)CC(=O)N(C)CC(=O)N(C)CC(=O)N[C@@H](C)C(=O)N[C@H]1CSCc3cc4cc(c3)CSC[C@H](NC(=O)[C@@H](C)NC(=O)[C@H](Cc3cccc5ccccc35)NC(=O)[C@H](CCC(=O)O)NC(=O)[C@H](CC(N)=O)NC(=O)[C@@H](C)NC1=O)C(=O)N[C@@H](CCC(=O)O)C(=O)N[C@@H](CC(=O)O)C(=O)N[C@@H](Cc1ccccc1)C(=O)N[C@@H](Cc1ccc(O)cc1)C(=O)N[C@@H](CC(=O)O)C(=O)N[C@@H](C(C)(C)C)C(=O)N[C@H](C(N)=O)CSC4)[C@]1(C)O[C@H]1[C@H](C)[C@@H]1C[C@@](O)(NC(=O)O1)[C@H](OC)/C=C/C=C(\C)C2 (some centres unmarked) [BT1718] ({X1-βAla}-[Sar][Sar][Sar][Sar][Sar][Sar][Sar][Sar][Sar][Sar]AC[dA]NE[1Nal][dA]CEDFYD[Tle]C-NH2; linker 12-18-25 via TBMB (inferred))
AUC [1]: 1.7 ± 0.3 µM·h
clearance [1]: 10.6 ± 1.5 mL/min/kg
half-life [1]: 25.8 ± 2.4 min
Cmax ([1]; read-out: C0/Cmax): 5.8 ± 0.94 µM
Vd ([1]; read-out: Vdss): 0.26 ± 0.08 L/kg
IC50 [2]: 19.7 nM
GI-related findings ([3]; GLP rat): No GI-related findings
bladder changes ([3]; GLP rat): No bladder changes
MTD ([3]; GLP rat, highest administered dose 6 mg/m^2 twice weekly): not reached
MTD at 28 day ([3]; in vivo, intravenous, considered from GLP and non-GLP rat studies, read-out: MTD for rat for twice weekly dosing): 1 to 1.5 mg/kg
anti-drug antibodies (ADAs) in serum ([3]; rat 28-day GLP study): negative
hepatic findings ([3]; rat GLP 28 day, 1 mg/kg (6 mg/m^2) twice weekly): minimal to slight reversible hepatocellular atrophy
raised ALP, AST and cholesterol, from control values ([3]; rat GLP 28 day, 1 mg/kg twice weekly): ≤ 1.5 ×
erythrocyte parameters, maximum drop [3, 11]: 0.64 ×
increase in platelets, maximum [3, 11]: 2.3 ×
reduction in reticulocytes ([3]; rat GLP, 1 mg/kg (6 mg/m^2) twice weekly, females): 0.37 ×
reduction in reticulocytes ([3]; rat GLP, 1 mg/kg (6 mg/m^2) twice weekly, males): 0.06 ×
reproductive organ findings ([3]; rat GLP, all males 1 mg/kg (6 mg/m^2) twice weekly): testicular degeneration/atrophy of the seminiferous tubules and the absence of sperm
incidence of minimal hypertrophy of the zona glomerulosa ([3]; rat GLP, females 1 mg/kg (6 mg/m^2) twice weekly): 5 of 10
incidence of minimal hypertrophy of the zona glomerulosa ([3]; rat GLP, males 0.2 mg/kg (1.2 mg/m^2) twice weekly): 2 of 10
incidence of minimal hypertrophy of the zona glomerulosa ([3]; rat GLP, males 0.5 mg/kg (3 mg/m^2) twice weekly): 3 of 10
adrenal gland terminal weights [3, 12]: significantly lower terminal weights
incidence of minimal hypertrophy of the zona glomerulosa [3, 12]: 4 of 10
onset dose of renal tubular epithelial degeneration ([3]; rat GLP, twice weekly): 0.2 mg/kg
axonal degeneration ([3]; rat study): not observed
fraction unbound [4]: 0.075
IC50 [5]: 141 nM
AUC ([6]; CD1, mouse, plasma, intravenous, 10 mg/kg): 5.3 µM·h
AUC ([6]; CD1 mouse, male, 30 mg/m^2 IV): 5.3
AUC ([6]; CD1 mouse, male, 60 mg/m^2 IV): 11.6
AUC ([6]; male, CD1, mouse, plasma, intravenous, 20 mg/kg): 11.6 µM·h
AUC [6, 13]: 2.8 µM·h
Cmax [6, 13]: 9.3 µM
Vd [6, 13]: 0.2 L/kg
clearance [6, 13]: 8.4 mL/min/kg
half-life [6, 13]: 19.8 min
Cmax ([6]; male, CD1, mouse, plasma, iv, 20 mg/kg): 38.2 µM
Vd [6, 14]: 0.27 L/kg
clearance [6, 14]: 9 mL/min/kg
half-life [6, 14]: 20.4 min
Vd [6, 15]: 0.22 L/kg
clearance [6, 15]: 8.2 mL/min/kg
half-life [6, 15]: 20.4 min
CNS behavioral effects (Irwin study) [7]: No effects
half-life [8]: 15 to 30 min
intrinsic clearance [9]: low
fraction unbound [10]: 0.038
